Test results published in patent publication US20220396632A1 (VERSEAU THERAPEUTICS, published 2022).
Non-standard residues stand in square brackets, D forms with d. No end group written: not given here. *: point of attachment. Biotin = O=C1N[C@H]2[C@H](CS[C@H]2CCCCC(=O)*)N1; sY = N[C@@H](Cc1ccc(OS(=O)(=O)O)cc1)C(=O)O

T1: SulfoTyr C4 peptide (not fully specified; Y4, Y7 and Y9 sulfated (SO3); C-terminal biotin)
T1 construct: also called C4 alpha chain peptide; human sulfotyrosinylated C4 peptide
T1 peptide: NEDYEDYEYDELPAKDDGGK

T2: Human fibrinogen protein (ThermoFisher, RP-43142) (human, UniProt P02671 20-629; P02675 31-491; P02679 27-453, limits assumed, natural sulfotyrosines)
T2 construct: mature; Native dimer with 3 pairs of non-identical chains; also called gamma-fibrinogen; γ fibrinogen protein
T2 sequence (looked up) 1: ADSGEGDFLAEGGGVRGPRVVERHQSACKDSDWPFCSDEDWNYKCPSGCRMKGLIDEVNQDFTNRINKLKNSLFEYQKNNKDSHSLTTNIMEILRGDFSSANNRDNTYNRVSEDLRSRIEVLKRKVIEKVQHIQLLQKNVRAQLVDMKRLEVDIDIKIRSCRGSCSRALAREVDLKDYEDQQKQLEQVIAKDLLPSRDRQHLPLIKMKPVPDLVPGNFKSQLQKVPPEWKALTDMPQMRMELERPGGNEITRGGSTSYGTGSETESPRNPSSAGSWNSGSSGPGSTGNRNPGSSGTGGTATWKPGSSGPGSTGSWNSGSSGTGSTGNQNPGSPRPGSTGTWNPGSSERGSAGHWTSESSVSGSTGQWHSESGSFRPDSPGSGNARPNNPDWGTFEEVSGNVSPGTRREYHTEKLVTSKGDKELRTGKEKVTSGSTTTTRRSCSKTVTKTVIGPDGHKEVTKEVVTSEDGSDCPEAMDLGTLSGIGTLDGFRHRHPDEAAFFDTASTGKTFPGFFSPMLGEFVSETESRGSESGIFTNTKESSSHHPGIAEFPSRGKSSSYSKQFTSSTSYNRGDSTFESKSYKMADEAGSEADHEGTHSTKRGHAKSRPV
T2 sequence (looked up) 2: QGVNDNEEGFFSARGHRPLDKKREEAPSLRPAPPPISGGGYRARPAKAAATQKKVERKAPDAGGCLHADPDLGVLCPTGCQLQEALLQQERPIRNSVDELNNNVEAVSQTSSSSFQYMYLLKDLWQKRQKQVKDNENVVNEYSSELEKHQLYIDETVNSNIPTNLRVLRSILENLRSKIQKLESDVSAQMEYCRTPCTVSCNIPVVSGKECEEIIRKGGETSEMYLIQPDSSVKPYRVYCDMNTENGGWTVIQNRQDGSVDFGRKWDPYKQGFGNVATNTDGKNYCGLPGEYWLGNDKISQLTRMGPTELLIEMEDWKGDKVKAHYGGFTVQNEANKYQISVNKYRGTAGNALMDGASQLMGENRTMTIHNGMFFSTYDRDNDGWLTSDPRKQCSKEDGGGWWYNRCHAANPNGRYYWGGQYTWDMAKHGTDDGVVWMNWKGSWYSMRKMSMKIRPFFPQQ
T2 sequence (looked up) 3: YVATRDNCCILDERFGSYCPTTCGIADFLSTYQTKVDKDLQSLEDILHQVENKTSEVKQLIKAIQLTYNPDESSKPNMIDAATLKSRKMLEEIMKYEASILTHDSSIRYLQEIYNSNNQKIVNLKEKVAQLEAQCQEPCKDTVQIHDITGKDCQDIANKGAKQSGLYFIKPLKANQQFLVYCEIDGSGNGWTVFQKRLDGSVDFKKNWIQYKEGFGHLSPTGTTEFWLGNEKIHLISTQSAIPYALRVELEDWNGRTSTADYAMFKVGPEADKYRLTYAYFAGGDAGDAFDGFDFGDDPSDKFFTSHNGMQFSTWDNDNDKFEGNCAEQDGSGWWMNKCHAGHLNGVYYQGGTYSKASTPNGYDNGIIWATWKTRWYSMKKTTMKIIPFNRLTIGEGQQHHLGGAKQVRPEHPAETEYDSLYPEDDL

T3: Sulfotyr fibrinogen γ peptide (not fully specified; Y8 and Y12 sulfated (SO3); C-terminal biotin)
T3 construct: also called Fibrinogen gamma peptide; human sulfotyrosinylated fibrinogen peptide
T3 peptide: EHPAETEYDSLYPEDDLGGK

T4: Sulfotyrosine CCR2b biotin peptide (human)
T4 construct: also called CCR2b peptide
T4 peptide: TTFFD[sY]D[sY]GAPSHGGK(Biotin)

T5: SulfoCCK biotin peptide (human)
T5 construct: also called sulfotyrosine CCK peptide
T5 peptide: SHRISDRD[sY]MGWMDFGGK(Biotin)

T6: Sulfotyrosine D6 biotin peptide (human)
T6 construct: also called D6 peptide
T6 peptide: ENSSFY[sY][sY]D[sY]LDEVAFGGK(Biotin)

T7: Scrambled Y42,52,63(SO3) PSGL-1(42-62) biotin peptide (sulfotyrosine at peptide positions 1, 11 and 22; C-terminal Lys-biotin)
T7 peptide: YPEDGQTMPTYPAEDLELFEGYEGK

T8: Biotin PSGL-1(42-62) peptide, unmodified (human, C-terminal Lys-biotin)
T8 construct: Residues 42-62 followed by GGGK-biotin; also called WT; wild-type
T8 peptide: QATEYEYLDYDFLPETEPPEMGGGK

T9: Biotin Y46,48,51(SO3) PSGL-1(42-62) peptide (human, sulfotyrosine at Y46, Y48 and Y51; C-terminal Lys-biotin)
T9 construct: also called fully sulfated N-terminal PSGL-1 peptide
T9 peptide: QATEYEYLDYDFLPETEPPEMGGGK

T10: Recombinant human PSGL-1(ECD)-hFc1 (R&D Systems, Cat. 3345-PS) (human, UniProt Q14242 42-305)
T10 construct: Bought; Gln42-Val295 counted on AAC50061; also called PSGL-1-Fc; PSGL-1-hFc1 chimera; not shown: human IgG1 Fc, Pro100-Lys330
T10 sequence: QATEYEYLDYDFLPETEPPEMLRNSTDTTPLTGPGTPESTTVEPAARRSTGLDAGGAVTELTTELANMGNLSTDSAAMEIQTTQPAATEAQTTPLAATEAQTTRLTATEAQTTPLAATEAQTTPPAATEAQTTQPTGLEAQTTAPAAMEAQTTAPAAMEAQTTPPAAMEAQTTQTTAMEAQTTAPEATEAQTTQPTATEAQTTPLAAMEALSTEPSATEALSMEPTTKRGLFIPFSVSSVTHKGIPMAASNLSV


What was measured:
SulfoTyr C4 peptide = biological target: T1, SulfoTyr C4 peptide; assay: ELISA, 50 nM mAb
Description: (§1) Recombinant PSGL-1-hFc1 chimera protein consisting of PSGL-1's extracellular domain (ECD) served as a positive control. […] Primary antibody was added (25 ul per well) in duplicate at 50 nM in assay buffer (blocking buffer containing 0.05% Tween®20) into test and control (just blocked) wells and the plate incubated for 45 min at 37° C.

[1] = biological target: T2, Human fibrinogen protein (ThermoFisher, …); assay: ELISA, 50 nM mAb
Description: as §1

[2] = biological target: T11, Human complement C4 protein (Millipore Sigma, Cat. 204886) (human, UniProt P0C0L4 20-675; P0C0L4 680-1446; P0C0L4 1454-1744, limits assumed, natural sulfotyrosines); assay: ELISA, 50 nM mAb
T11 construct: mature
T11 sequence (P0C0L4 20-675 limits assumed, form in doubt, chain 1 of 3): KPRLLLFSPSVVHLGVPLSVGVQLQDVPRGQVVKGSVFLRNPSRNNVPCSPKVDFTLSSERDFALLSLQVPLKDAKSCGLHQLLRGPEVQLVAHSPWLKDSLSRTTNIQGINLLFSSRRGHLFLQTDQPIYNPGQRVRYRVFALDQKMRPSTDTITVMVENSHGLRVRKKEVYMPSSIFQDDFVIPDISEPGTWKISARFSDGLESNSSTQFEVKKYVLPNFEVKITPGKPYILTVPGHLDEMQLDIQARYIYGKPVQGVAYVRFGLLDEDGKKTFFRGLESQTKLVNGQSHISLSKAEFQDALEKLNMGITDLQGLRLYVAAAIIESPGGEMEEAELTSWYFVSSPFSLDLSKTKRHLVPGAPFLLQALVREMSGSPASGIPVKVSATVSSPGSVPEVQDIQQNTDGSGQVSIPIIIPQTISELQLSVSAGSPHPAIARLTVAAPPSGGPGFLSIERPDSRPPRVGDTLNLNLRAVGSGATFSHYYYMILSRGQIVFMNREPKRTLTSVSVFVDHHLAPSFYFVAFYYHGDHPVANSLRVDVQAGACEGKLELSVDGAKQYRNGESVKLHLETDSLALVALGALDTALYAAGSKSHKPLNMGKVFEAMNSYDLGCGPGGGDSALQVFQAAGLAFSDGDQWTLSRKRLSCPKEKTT
T11 sequence (P0C0L4 680-1446 limits assumed, form in doubt, chain 2 of 3): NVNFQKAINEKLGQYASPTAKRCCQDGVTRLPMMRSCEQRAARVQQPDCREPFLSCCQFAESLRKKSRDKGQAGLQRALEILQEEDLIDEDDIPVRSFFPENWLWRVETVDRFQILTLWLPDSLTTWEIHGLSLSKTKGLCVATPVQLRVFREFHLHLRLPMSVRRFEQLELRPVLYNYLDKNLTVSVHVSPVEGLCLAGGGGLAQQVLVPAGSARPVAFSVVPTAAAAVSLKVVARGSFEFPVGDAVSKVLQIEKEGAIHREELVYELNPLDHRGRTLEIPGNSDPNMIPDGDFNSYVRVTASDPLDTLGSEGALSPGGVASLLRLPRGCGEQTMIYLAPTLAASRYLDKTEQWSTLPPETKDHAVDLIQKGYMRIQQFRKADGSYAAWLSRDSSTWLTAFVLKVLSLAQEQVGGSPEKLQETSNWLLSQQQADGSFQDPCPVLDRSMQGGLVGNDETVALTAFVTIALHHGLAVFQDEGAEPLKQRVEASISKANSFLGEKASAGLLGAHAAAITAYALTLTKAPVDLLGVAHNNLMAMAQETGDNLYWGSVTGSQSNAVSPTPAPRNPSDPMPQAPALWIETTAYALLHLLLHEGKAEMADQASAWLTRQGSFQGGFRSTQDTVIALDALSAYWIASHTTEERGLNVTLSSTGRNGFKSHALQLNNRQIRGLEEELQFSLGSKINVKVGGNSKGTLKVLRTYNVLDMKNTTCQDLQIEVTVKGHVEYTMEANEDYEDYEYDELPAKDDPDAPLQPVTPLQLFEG
T11 sequence (P0C0L4 1454-1744 limits assumed, form in doubt, chain 3 of 3): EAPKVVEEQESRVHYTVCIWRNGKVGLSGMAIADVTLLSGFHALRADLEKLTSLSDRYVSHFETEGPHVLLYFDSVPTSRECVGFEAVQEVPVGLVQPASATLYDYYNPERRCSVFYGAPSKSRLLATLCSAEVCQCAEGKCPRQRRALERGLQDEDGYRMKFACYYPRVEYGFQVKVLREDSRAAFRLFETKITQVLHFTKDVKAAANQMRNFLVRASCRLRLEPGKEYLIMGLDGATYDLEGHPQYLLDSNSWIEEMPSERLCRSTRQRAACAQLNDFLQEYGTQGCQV
Description: as §1

[3] = biological target: T3, Sulfotyr fibrinogen γ peptide; assay: ELISA, 50 nM mAb
Description: as §1

[4] = biological target: T4, Sulfotyrosine CCR2b biotin peptide; assay: ELISA, 50 nM mAb
Description: as §1

SulfoCCK biotin peptide = biological target: T5, SulfoCCK biotin peptide; assay: ELISA, 50 nM mAb
Description: as §1

[5] = biological target: T6, Sulfotyrosine D6 biotin peptide; assay: ELISA, 50 nM mAb
Description: as §1

[6] = biological target: T7, Scrambled Y42,52,63(SO3) PSGL-1(42-62) …; assay: ELISA, immobilized biotin peptide
Description: (§2) A typical ELISA was performed by coating high binding half-well plates (Corning Cat. #3690) with 3 ug/mL/25 ul per well of biotinylated N-terminal PSGL-1 peptides, which incorporated residues 42 to 62 of the protein, in PBS, pH 7.4, overnight at 4° C. The peptide was unmodified or contained sulfated tyrosine at all 3 tyrosine positions (46, 48, and 51) or at one position (tyr51) (Table 7).
(§3) PSGL-1 protein or peptide served as a positive control. […] […] […] For each antibody, duplicate values were averaged and average assay background was subtracted.

[7] = biological target: T8, Biotin PSGL-1(42-62) peptide, unmodified; assay: ELISA, immobilized biotin peptide
Description: as §2, §3

[8] = biological target: T9, Biotin Y46,48,51(SO3) PSGL-1(42-62) …; assay: ELISA, immobilized biotin peptide
Description: as §2, §3

[9] = biological target: T10, Recombinant human PSGL-1(ECD)-hFc1 (R&D …); assay: ELISA, 50 nM mAb
Description: as §1

binding normalized to PSGL-1 (SulfoTyr C4 peptide)	binding normalized to PSGL-1 [1]	binding result [1]	binding normalized to PSGL-1 [2]	binding normalized to PSGL-1 [3]	binding normalized to PSGL-1 [4]	binding normalized to PSGL-1 (SulfoCCK biotin peptide)	binding normalized to PSGL-1 [5]	A450nm, 20 nM mAb [6] [A450nm]	binding result [6]	A450nm, 20 nM mAb [7] [A450nm]	A450nm, 20 nM mAb [8] [A450nm]	A450nm [9] [A450nm]	EC50 [7] [nM]	EC50 [8] [nM]	binding result [4]	Binder
0.94	-0.18	no binding (tested: 50 nM)	0.87	1.13	0.56	0.5	1.48	0.03	no binding (tested: 20 nM)	2.07	2.5					02E01 (antibody, IgG4, V domains shown) VH: EVQLVQSGGGVVQPGRSLRLSCAASGFTFSRYGMHWVRQAPGKGLEWVSVISYDGNNKYYADSVKGRFTISRDNSKNTVYLQMNSLRADDTAVYYCARNVPVTNFGYWGQGTLVTVSS VL: QSALTQPASVSGSPGQSITISCTGTSSDVGGYNYVSWYQQHPGKAPKLMIYDVSKRPSGVSNRFSGSKSGNTASLTISGLQAEDEADYYCSSYTRPGRVFGGGTKLTVL
0.41	-0.07	no binding (tested: 50 nM)	0.56	0.57	0.01	0.13	0.42	0.01	no binding (tested: 20 nM)		2.5	1.7	5.1	1.7	no binding (tested: 50 nM)	03B04 (antibody, IgG4, V domains shown) VH: EVKLLESGGGLVKPGGSLRLSCAASGFAFSRYTMNWVRQAPGKGLEWVSSISSSSSYIYYADSVKGRFTISRDNAKNSLVLQMNSLRPEDTAVYYCARGGIAANDYWGQGTLVTVSS VL: EIVMTQTPLSLPVTLGQPASISCRSSRNLVHYDGNTYLSWFHQRPGQPPRRLIYKISNRESGVPDRFSGSGSGTDFTLKISRVEAEDVGVYYCLQHTHWPWTFGPGTKVEIK

Continued, binder first:

Binder	binding normalized to PSGL-1 (SulfoTyr C4 peptide)	binding normalized to PSGL-1 [1]	binding result [1]	binding normalized to PSGL-1 [2]	binding normalized to PSGL-1 [3]	binding normalized to PSGL-1 [4]	binding normalized to PSGL-1 (SulfoCCK biotin peptide)	binding normalized to PSGL-1 [5]	A450nm, 20 nM mAb [6] [A450nm]	binding result [6]	A450nm, 20 nM mAb [7] [A450nm]	A450nm, 20 nM mAb [8] [A450nm]	A450nm [9] [A450nm]	EC50 [7] [nM]	EC50 [8] [nM]	binding result [4]
02E06 (antibody, IgG4, V domains shown) VH: QVQLVQSGAEVKKPGASVKVSCKASGYSFTDYYMHWVRQAPGQGLEWMGWMNPNSGNTGYAQTFQGRVTMTRNTSISTAYMELSSLRSEDTAVYYCARGRRVRGTPTFEYWGQGTLVTVSS VL: QSVVTQPPSASGTPGQRVTISCSGRSSNIGSYTVNWFQHLPGTGPKLLIYGNNQRPSGVPGRFSGSKSGTSASLAISGLQSNDEATYYCAAWDDSLNGHYVFGTGTKVTVL	1.28	0.2		1.24	1.34	1.19	1.21		0.12			2.6	1.8	> 500	0.17	
08C07 (antibody, IgG4, V domains shown) VH: QMQLVQSGAEVKKPGSSVKVSCKASGGTFSNYGMIWVRQAPRQGLEWMGRIIPFLDKPDYSEKFQDRITFTADKSTSTVYMELRGLRSDDTAVYYCAKWTSTLQGITTGQTWGQGTLVTVSS VL: QPVLTQPPSASGTPGQRVTISCSGSSSNIGGSYMYWYQQFPGTAPKLLIYRNNQRPSGVPDRFSGSKSGTSASLAISGLRSEDEADYYCAAWDVSLSGWVFGGGTKLTVL	0.89	0.03		0.6	0.49	0.79	0.66	1.2		no binding (tested: 20 nM)		2.6	1.78			
07G01 (antibody, V domains shown) VH: EVKLLESGGGLVRPGGSLRLSCAASGFTLSNYAMSWVRQAPGKGLEWVSAISGVGITTYYADSVKGRFIISRDNSKNTVYLQMNSLRAEDTAVYYCAKSRGGGAFDYWGQGTLVTVSS VL: not shown	1.41	0.13		1.38	1.44	1.63	1.66			no binding (tested: 20 nM)		2.58	1.69	> 500	3.7	
